Ends that are not written are not given here.
T1: GST-β5cyto (GST fusion protein of the β5 integrin cytoplasmic domain) (UniProt P18084 743-799)
T1 construct: domain: cytoplasmic domain; Recombinant GST fusion coated on microtiter wells; also called β5-GST; β5 cytoplasmic domain fusion protein; not shown: glutathione S-transferase (GST) fusion partner
T1 sequence (looked up): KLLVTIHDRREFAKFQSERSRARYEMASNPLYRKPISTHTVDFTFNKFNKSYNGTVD

B1: Fyn-phosphorylated phage displaying … (SEQ ID NO:120) (peptide)
peptide: TLRKYFHSS
modifications: not fully specified (residue 5); also: displayed on phage
B2: Fyn-phosphorylated phage displaying … (SEQ ID NO:119) (peptide)
peptide: TMLRYFMFP
modifications: not fully specified (residue 5); also: displayed on phage
B3: Fyn-phosphorylated phage displaying … (SEQ ID NO:118) (peptide)
peptide: TMLRYTVRL
modifications: not fully specified (residue 5); also: displayed on phage
B4: Fyn-phosphorylated phage displaying … (SEQ ID NO:117) (peptide)
peptide: MLLGYRFEK
modifications: not fully specified (residue 5); also: displayed on phage
B5: Fyn-phosphorylated phage displaying … (SEQ ID NO:115) (peptide)
peptide: GGGSYRHVE
modifications: not fully specified (residue 5); also: displayed on phage
B6: phage displaying … (SEQ ID NO:108) (peptide)
peptide: CKLWQEDGY
B7: phage displaying DWFSYYEL (SEQ ID NO:114) (peptide)
peptide: DWFSYYEL
B8: phage displaying CEPYWDGWFC (SEQ ID NO:106) (peptide)
peptide: CEPYWDGWFC
modifications: cysteine pairing not given here; also: displayed on phage
notes: whole phage tested
B9: phage displaying SDWYYPWSW (SEQ ID NO:113) (peptide)
peptide: SDWYYPWSW
notes: whole phage tested; Selected on β5
B10: phage displaying CYIWPDSGLC (SEQ ID NO:105) (peptide)
peptide: CYIWPDSGLC
modifications: cysteine pairing not given here; also: displayed on phage
notes: whole phage tested
B11: phage displaying DEEGYYMMR (SEQ ID NO:110) (peptide)
peptide: DEEGYYMMR
notes: whole phage tested
B12: phage displaying CKEDGWLMTC (SEQ ID NO:107) (peptide)
peptide: CKEDGWLMTC
notes: whole phage tested
B13: phage displaying VVISYSMPD (SEQ ID NO:112) (peptide)
peptide: VVISYSMPD
notes: whole phage tested
B14: phage displaying KQFSYRYLL (SEQ ID NO:111) (peptide)
peptide: KQFSYRYLL
notes: whole phage tested
B15: phage displaying CWDQNYLDDC (SEQ ID NO:109) (peptide)
peptide: CWDQNYLDDC
notes: whole phage tested
B16: phage displaying CPKVCPRECESNC (SEQ ID NO:127) (peptide)
peptide: CPKVCPRECESNC
notes: whole phage tested
B17: phage displaying CYNLCIRECESICGADGACWTWCADGCSRSC (SEQ ID NO:125) (peptide)
peptide: CYNLCIRECESICGADGACWTWCADGCSRSC
notes: whole phage tested; also called tandem phage
B18: phage displaying CLGQCASICVNDC (SEQ ID NO:126) (peptide)
peptide: CLGQCASICVNDC
notes: whole phage tested
B19: phage displaying CNLSSEQC (SEQ ID NO:103) (peptide)
peptide: CNLSSEQC
modifications: cysteine pairing not given here; also: displayed on phage
notes: whole phage tested
B20: phage displaying YDWWYPWSW (SEQ ID NO:95) (peptide)
peptide: YDWWYPWSW
notes: whole phage tested
B21: phage displaying SDWYYPWSW (SEQ ID NO:100) (peptide)
peptide: SDWYYPWSW
notes: whole phage tested; Selected on β3
B22: phage displaying KVSWYLDNG (SEQ ID NO:99) (peptide)
peptide: KVSWYLDNG
notes: whole phage tested
B23: phage displaying CFQNRC (SEQ ID NO:102) (peptide)
peptide: CFQNRC
modifications: cysteine pairing not given here; also: displayed on phage
notes: whole phage tested
B24: phage displaying YEWWYWSWA (SEQ ID NO:98) (peptide)
peptide: YEWWYWSWA
notes: whole phage tested
B25: phage displaying CEQRQTQEGC (SEQ ID NO:93) (peptide)
peptide: CEQRQTQEGC
modifications: cysteine pairing not given here; also: displayed on phage
notes: whole phage tested
B26: phage displaying CARLEVLLPC (SEQ ID NO:94) (peptide)
peptide: CARLEVLLPC
modifications: cysteine pairing not given here; also: displayed on phage
notes: whole phage tested
B27: phage displaying CLRQSYSYNC (SEQ ID NO:104) (peptide)
peptide: CLRQSYSYNC
modifications: cysteine pairing not given here; also: displayed on phage
notes: whole phage tested
B28: phage displaying SDNRYIGSW (SEQ ID NO:97) (peptide)
peptide: SDNRYIGSW
notes: whole phage tested
B29: phage displaying GLDTYRGSP (SEQ ID NO:96) (peptide)
peptide: GLDTYRGSP
notes: whole phage tested
B30: CPRECESIC (SEQ ID NO:123) soluble cyclic peptide (peptide)
peptide: CPRECESIC
modifications: disulfide (positions not given here); not fully specified; also: disulfide positions not determined, mixture of six MS species, possibly dimers
B31: phage displaying … (SEQ ID NO:101) (peptide)
peptide: AGWLYMSWK
B32: phage displaying CSGLCTVQCLEGC (SEQ ID NO:130) (peptide)
peptide: CSGLCTVQCLEGC
notes: one of the other phage selected in round 2
B33: phage displaying CAVACWADCQLGC (SEQ ID NO:129) (peptide)
peptide: CAVACWADCQLGC
notes: as for B32
B34: phage displaying CGTGCAVECEVVC (SEQ ID NO:128) (peptide)
peptide: CGTGCAVECEVVC
notes: whole phage tested
B35: phage displaying CSMMCLEGCDDWC (SEQ ID NO:131) (peptide)
peptide: CSMMCLEGCDDWC
notes: as for B32

Biological target: GST-β5cyto (GST fusion protein of the β5 integrin cytoplasmic domain) (UniProt P18084)
Assay: phage binding to β5, colonies with Fyn-phosphorylated phage / unphosphorylated phage

| Binder | Phos/Unphos |
| --- | --- |
| B1 | 3.8 |
| B2 | 4.2 |
| B3 | 14.3 |

Biological target: GST-β3cyto (GST fusion protein of the β3 integrin cytoplasmic domain) (UniProt P05106)
Assay: phage binding to β3, colonies with Fyn-phosphorylated phage / unphosphorylated phage

Chain of GST-β3cyto (GST fusion protein of the β3 integrin cytoplasmic domain) (UniProt P05106) (P05106 742-788): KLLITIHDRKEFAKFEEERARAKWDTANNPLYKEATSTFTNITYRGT

| Binder | Phos/Unphos |
| --- | --- |
| B4 | 2.5 |
| B5 | 13.2 |

Biological target: GST-β5cyto (GST fusion protein of the β5 integrin cytoplasmic domain) (UniProt P18084)
Assay: phage binding, colonies from β5-GST wells / GST wells

| Binder | β5/GST Ratio |
| --- | --- |
| B6 | 1.8 |
| B7 | 1.7 |

Biological target: GST-β5cyto (GST fusion protein of the β5 integrin cytoplasmic domain) (UniProt P18084)
Assay: phosphorylated phage binding, β5 colonies / GST colonies

| Binder | β3 or β5/GST |
| --- | --- |
| B1 | 3.8 |
| B2 | 2.3 |
| B3 | 3.4 |

Biological target: T1, GST-β5cyto (GST fusion protein of the …)
Assay: phage binding, colonies from β5-GST wells / BSA wells
Description: (§1) β3 and β5 cytoplasmic domain-binding peptides were isolated by screening multiple phage libraries with recombinant GST fusion proteins that contained either GST-β3cyto or GST-β5cyto coated onto microtiter wells. Immobilized GST was used as a negative control for enrichment during the panning of each cytoplasmic domain. Phage were sequenced from randomly selected clones after three rounds of panning as disclosed elsewhere (Koivunen et al., 1995; Pasqualini et al., 1995). […] Randomly selected clones from panning rounds II and III were sequenced. Amino acid sequences of the phagemid encoded peptides were deduced from nucleotide sequences. The ratios were calculated by dividing the number of colonies recovered from β3-GST-coated wells and those recovered from GST or BSA.

| Binder | β5/BSA Ratio [ratio] |
| --- | --- |
| B8 | 400 |
| B9 | 304 |
| B10 | 193 |
| B11 | 29 |
| B12 | 836 |
| B13 | 28 |
| B14 | 8 |
| B15 | 100 |

Biological target: GST-β3cyto (GST fusion protein of the β3 integrin cytoplasmic domain) (UniProt P05106)
Assay: phosphorylated phage binding, β3 colonies / BSA colonies

| Binder | β3 or β5/BSA |
| --- | --- |
| B4 | 2.7 |
| B5 | 5.3 |

Biological target: T2, Aminopeptidase A (APA, EC 3.4.11.7) on SK-RC-49/APA cells (UniProt Q07075 1-957, limits assumed)
T2 construct: whole, on cells
Assay: phage binding to SK-RC-49/APA cells against parental cells (not shown)

T2 sequence (Q07075 whole entry): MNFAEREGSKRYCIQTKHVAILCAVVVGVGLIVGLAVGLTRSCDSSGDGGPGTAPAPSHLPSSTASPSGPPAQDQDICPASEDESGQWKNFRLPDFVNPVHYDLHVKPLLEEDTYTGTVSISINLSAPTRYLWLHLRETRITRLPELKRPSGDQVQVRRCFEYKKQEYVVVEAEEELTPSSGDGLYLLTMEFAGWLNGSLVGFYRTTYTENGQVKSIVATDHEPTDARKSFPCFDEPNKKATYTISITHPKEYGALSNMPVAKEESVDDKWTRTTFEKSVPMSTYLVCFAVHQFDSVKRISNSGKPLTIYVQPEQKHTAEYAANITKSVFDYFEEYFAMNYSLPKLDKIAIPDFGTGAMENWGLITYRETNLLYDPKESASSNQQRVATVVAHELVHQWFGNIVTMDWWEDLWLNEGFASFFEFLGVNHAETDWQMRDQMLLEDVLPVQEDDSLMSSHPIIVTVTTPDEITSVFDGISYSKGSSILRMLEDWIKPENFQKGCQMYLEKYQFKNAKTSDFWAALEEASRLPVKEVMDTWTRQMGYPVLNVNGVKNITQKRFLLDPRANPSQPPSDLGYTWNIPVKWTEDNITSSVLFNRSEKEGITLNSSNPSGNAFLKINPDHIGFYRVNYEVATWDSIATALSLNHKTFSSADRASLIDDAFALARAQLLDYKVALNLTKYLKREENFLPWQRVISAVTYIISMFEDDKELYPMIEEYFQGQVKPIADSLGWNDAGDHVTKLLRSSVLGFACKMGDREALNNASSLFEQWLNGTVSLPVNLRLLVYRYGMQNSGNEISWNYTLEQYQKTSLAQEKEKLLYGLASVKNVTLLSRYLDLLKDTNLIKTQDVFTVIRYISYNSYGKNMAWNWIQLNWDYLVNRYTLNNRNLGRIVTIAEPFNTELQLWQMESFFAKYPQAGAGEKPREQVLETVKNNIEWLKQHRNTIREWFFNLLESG

| Binder | fold enrichment relative to SK-RC-49 parental cells [fold] |
| --- | --- |
| B16 | 6 |
| B17 | 6 |
| B18 | 6 |

Biological target: T3, GST-β3cyto (GST fusion protein of the β3 integrin cytoplasmic domain) (UniProt P05106 742-788)
T3 construct: domain: cytoplasmic domain; Recombinant GST fusion coated on microtiter wells; also called β3-GST; β3 cytoplasmic domain fusion protein; not shown: glutathione S-transferase (GST) fusion partner
Assay: phage binding, colonies from β3-GST wells / GST wells
Description: as §1

T3 sequence (P05106 742-788): as the sequence (P05106 742-788) above

| Binder | β3/GST Ratio [ratio] |
| --- | --- |
| B19 | 2.7 |
| B20 | 5.6 |
| B21 | 2.1 |
| B22 | 2.1 |
| B23 | 3.1 |
| B24 | 2.2 |
| B25 | 4.3 |
| B26 | 2.8 |
| B27 | 2.4 |
| B28 | 3.3 |
| B29 | 4.1 |

Biological target: T1, GST-β5cyto (GST fusion protein of the …)
Assay: phage binding, colonies from β5-GST wells / GST wells
Description: as §1

| Binder | β5/GST Ratio [ratio] |
| --- | --- |
| B8 | 3.1 |
| B9 | 2.4 |
| B10 | 5.2 |
| B11 | 11.5 |
| B12 | 2.3 |
| B13 | 3.8 |
| B14 | 4.5 |
| B15 | 1.5 |

Biological target: T2, Aminopeptidase A (APA, EC 3.4.11.7) on …
Assay: cell-based or functional assay

| Binder | IC50 for APA enzyme inhibition (α-glutamyl-p-nitroanilide, colorimetric, SK-RC49/APA cells) [µM] |
| --- | --- |
| B30 | 800 |

Biological target: GST-β3cyto (GST fusion protein of the β3 integrin cytoplasmic domain) (UniProt P05106)
Assay: phosphorylated phage binding, β3 colonies / GST colonies

| Binder | β3 or β5/GST |
| --- | --- |
| B4 | 3.5 |
| B5 | 1.5 |

Biological target: GST-β5cyto (GST fusion protein of the β5 integrin cytoplasmic domain) (UniProt P18084)
Assay: phage binding, colonies from β5-GST wells / BSA wells

| Binder | β5/BSA Ratio |
| --- | --- |
| B6 | 665 |
| B7 | 153 |

Biological target: GST-β3cyto (GST fusion protein of the β3 integrin cytoplasmic domain) (UniProt P05106)
Assay: phage binding, colonies from β3-GST wells / BSA wells

| Binder | β3/BSA Ratio |
| --- | --- |
| B31 | 2.4 |

Biological target: GST-β3cyto (GST fusion protein of the β3 integrin cytoplasmic domain) (UniProt P05106)
Assay: phage binding, colonies from β3-GST wells / GST wells

| Binder | β3/GST Ratio |
| --- | --- |
| B31 | 1.8 |

Biological target: T3, GST-β3cyto (GST fusion protein of the …)
Assay: phage binding, colonies from β3-GST wells / BSA wells
Description: as §1

| Binder | β3/BSA Ratio [ratio] |
| --- | --- |
| B19 | 62 |
| B20 | 163 |
| B21 | 157 |
| B22 | 20 |
| B23 | 16 |
| B24 | 28.1 |
| B25 | 14 |
| B26 | 18.7 |
| B27 | 3.2 |
| B28 | 32 |
| B29 | 48 |

Biological target: T2, Aminopeptidase A (APA, EC 3.4.11.7) on …
Assay: phage binding to SK-RC-49/APA cells against SK-RC-49 parental cells

| Binder | binding result |
| --- | --- |
| B32 | no binding |
| B33 | no binding |
| B34 | no binding |
| B35 | no binding |

Biological target: GST-β5cyto (GST fusion protein of the β5 integrin cytoplasmic domain) (UniProt P18084)
Assay: phosphorylated phage binding, β5 colonies / BSA colonies

| Binder | β3 or β5/BSA |
| --- | --- |
| B1 | 15.2 |
| B2 | 3.8 |
| B3 | 2.2 |

Reference: US20040170955A1 (University of Texas, published 2004)
